Columns and labels:
[1] = target: activated GST fusion protein of full-length human Akt1 (T308D/S473D) (human) (UniProt P31749); assay: other fluorescence titration
[2] = target: activated GST fusion protein of full-length human Akt1 (T308D/S473D) (human) (UniProt P31749); assay: pull-down

Chain of UniProt P31749 (P31749 whole entry T308D/S473D, the tested form may be a part): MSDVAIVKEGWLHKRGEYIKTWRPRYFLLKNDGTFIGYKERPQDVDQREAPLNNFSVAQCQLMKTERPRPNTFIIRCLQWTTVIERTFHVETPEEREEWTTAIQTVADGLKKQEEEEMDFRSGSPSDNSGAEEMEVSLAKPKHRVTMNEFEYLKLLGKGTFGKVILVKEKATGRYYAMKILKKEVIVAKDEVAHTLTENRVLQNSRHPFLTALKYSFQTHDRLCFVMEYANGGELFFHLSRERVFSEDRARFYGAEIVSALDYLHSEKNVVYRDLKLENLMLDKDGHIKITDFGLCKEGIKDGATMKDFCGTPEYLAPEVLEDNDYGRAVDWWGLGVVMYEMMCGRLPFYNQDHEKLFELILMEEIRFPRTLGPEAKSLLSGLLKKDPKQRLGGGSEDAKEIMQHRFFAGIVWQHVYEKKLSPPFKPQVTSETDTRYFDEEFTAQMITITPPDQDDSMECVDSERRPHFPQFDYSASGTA

## T7-tagged CBP CH3 fragment with T1872D (from UniProt P45481 1756-1878) (domain or fragment)
[1]
  Kd: 4.07 nM

## T7-tagged CBP CH3 fragment with T1872A (from UniProt P45481 1756-1878) (domain or fragment)
[1]
  Kd: 1.2 nM

## GSK-3α/β fusion protein
[2]
  percentage of recovery: 31.7%

— publication PMC2841437
